Assay results from the nanobody polyreactivity screen of Harvey et al. (2022).

test: yeast display, Sf9 membrane polyspecificity reagent, FACS + sequencing; frameworks hold sequencing errors
In short: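 A nanobody's polyreactivity label depends on the gate it was sorted from. Yeast display cells were stained with 10% biotinylated, detergent-solubilized Sf9 membrane reagent for 1 hour at 4 °C, enriched on streptavidin microbeads and sorted by FACS. The low and high (top ~1%) gates were set on anti-HA fluorescence for expression and streptavidin fluorescence for reagent binding.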

Row | Sequence | polyreactivity (PSR sort gate)
1 | QVQLVESGGGLVQAGGSLRLSCAASGRIYYYAMGWYRQAPGKERELVAAISRGGSTKYADSVKGRFTISRDNAKNTVYLQMNSLKPEETAVYYCAAGGTVYRYDYWGQGTQVTVSS | low polyreactivity
2 | QVQLVESGGGLVQAGGSLRLSCAASGRLFDSNARGWYSQAPGKERELVAAISSGASTYYADSVKGRFTISRDNAKNTVYLQMNSLKPEDTAVYYCAVRLRYAYRARGNYWGQGTQVTVSS | low polyreactivity
3 | QVQLVESGGGLVQAGGSLRLSCAASGRLFKSYAMGWYRQAPGKEREFVAAISTRSSSTYYADSVKGLFTISRDNAKNTVYLQMNSLKPEDTAVYYCAATPRRVSPYGVPYGDVYWGQGTQVTVSS | low polyreactivity
4 | QVQLVESGGGLVQAGGSLRLSCAASGRLFPYYDMGWYRQAPGKERELVAAITGNGGSTYYADSVKGRFTISRDNAKNTVYLQMNSLKPEDTAVYYCAVDPYYYGEDYWGQGTQVTVSS | low polyreactivity
5 | QVQLVESGGGLVQAGGSLRLSCAASGRLFSRNVMGWSRQAPGKERELVAAISSSGSTYADSVKGRFTISRDNEKNTVYLQMNSLKPEDTAVSYCAAVIYLWGQGTQVTVSS | high polyreactivity
6 | QVQLVESGGGLVQAGGSLRLSCAASGRLLPIYAMGWYRQAAGKERELVATISWTSDSTYYADSVKGRFTISRDNAKNTVYLQMNSLKPEDTAFYYCAREYTYNYASTVIYDHWGQGTQVTVSS | low polyreactivity
7 | QVQLVESGGGLVQAGGSLRLSCAASGRMFRWYAMGWYRPAPGKERELVAAITSGGSTNYADSVKGRFTISRDNAKNTVYLKMNSLKPEDTAVYYCAARWKFPSSFYYWGQGTQVTVSS | high polyreactivity
8 | QVQLVESGGGLVQAGGSLRLSCAASGRMFWSNAMGWYIQAPGKERELFAAIRNTGSTNYADSVKGRFTISRDNAKNTVYLQMNSLKPEDTAVYYCAAYKGSSKYDYWGQGTQVTVSS | high polyreactivity
9 | QVQLVESGGGLVQAGGSLRLSCAASGRNFENNAMGWYRQAPGKERELVAAITSSGGRTYYADSVKGRFTISRDNAKNTVYLQMNSLKPEDTAVYYCAADNFAPEFYYWGQGTQVTVSS | low polyreactivity
10 | QVQLVESGGGLVQAGGSLRLSCAASGRNFGNYAMGGYRQAPGKERELVAAISNGGSTNYADSVKGRVTISRDNAKNTVYFQMNSLKPEDTAVYYCNADQWAVIWGYLVLDFYYWGQGTQVPVSS | low polyreactivity
11 | QVQLVESGGGLVQAGGSLRLSCAASGRNFIDYMGWYRQAPGKERELVAAIDSGASTYYADSVKGRFTISRDNAKNTVYLQMNSLNPEDTAVYYCAADVVYDYGGMDYWGQGTLVTVSS | low polyreactivity
12 | QVQLVESGGGLVQAGGSLRLSCAASGRNFIYNAMGWYRQAPGKERELVAAISRSGGSTNYADSVKGRFTISRDNAKNTVYLQMNSLKPEDTAVYYCAVDSGRYYYYLGFSTRYYWGQGTQVTVSS | high polyreactivity
13 | QVQLVESGGGLVQAGGSLRLSCAASGRNFKFYAMGWYRQAPGKERELVAGINTDGGSTYYADSVKGRFTISRDNAKNTVYLQMNSLKPEDTAVYYCNAYYYKPARKYARHYDYWGQGTQVTVSS | low polyreactivity
14 | QVQLVESGGGLVQAGGSLRLSCAASGRNFKIYTMGWYRQAPGKERELVAAISSSGRTYYADSVKGRFTISRDNAKNTVYLQMNSLKPEDTAVYYCAAVPYTRWKGADGDYWGQGTQVTVSS | high polyreactivity
15 | QVQLVESGGGLVQAGGSLRLSCAASGRNFLVYAMGWYRQAPGKERELVAAITYSDGSTYYADSVKGRFTISRDNAKNTVYLQMNSLKPEDTAVYYCAADSSTFPSDYYWGKGTQVTVSS | low polyreactivity
16 | QVQLVESGGGLVQAGGSLRLSCAASGRNFPLNAMGWYRQAPWKERELVAAISIGGSTYYADSVKGRFTISRDNPKNTVYLQMNSLKPDETAVYYCAAVWYTSRQKYDYWGQGTQVTVSS | low polyreactivity
17 | QVQLVESGGGLVQAGGSLRLSCAASGRNFRANAMGWSRQEPGKERELVASITYSGGSTYYADSVKGRFTISRDNAKNTVYVQMNSLKPEDTAVYYCARAGISSGGYYYWGQGTQVTVSS | low polyreactivity
18 | QVQLVESGGGLVQAGGSLRLSCAASGRNFRDYTMGWYRQAPGKERELVAAITSTGDTNYADSVKGRFTISRDNAKNTVYLQMNSLKPEDTAVYYCATQTGEEYQAPLIYDYWGQGTQVTVSS | low polyreactivity
19 | QVQLVESGGGLVQAGGSLRLSCAASGRNFSYYAMGWYRQAPGKERELVAAISWNGGSTYYADSVKGRFTISRDNAKNTVYLQMNSLKPEDTAVYYCAVLPHYEYDYWGQGTQVTVSS | high polyreactivity
20 | QVQLVESGGGLVQAGGSLRLSCAASGRNFTIYAMGWYRQAPGKERELVATISSNVGSTYYADSVKGRFTISRDNAKNTVYLQMNSLKPEDTAVYYCNVVPYLYGLDGYDYWGQGTQVTVSS | high polyreactivity
21 | QVQLVESGGGLVQAGGSLRLSCAASGRNFTSNSMGLYRQAPGKEREFVAAITTSGASTRYADSVKGRFTISRDNAKNTVYLQMNSLKPEDTAVYYCAAEQRRFTGYDYWGQGTQVTVSS | high polyreactivity
22 | QVQLVESGGGLVQAGGSLRLSCAASGRNFVRYTMGWYRQAPGKERELVAAISGSGSSTFYADSVKGRFTISRDNAKNTVYLQMNSLKPEDTAVYYCAARVRRVARDPYDYWGQGTQVTVSS | high polyreactivity

Row | Sequence | polyreactivity (PSR sort gate)
23 | QVQLVESGGGLVQAGGSLRLSCAASGRNFVTNAMGWYRQAPGKERELVAAITRGGNTNYADSVKGRFTISRDNAKNTVYLQMNSLKPEDSAVYYCAADTSYYYVYGYFPGYYYWGQGTQVTVSS | low polyreactivity
24 | QVQLVESGGGLVQAGGSLRLSCAASGRNFYLYGMGWYRQAPGKERELVAAIDWSDGSTYYADSVKGRFTISRDNAKNTVYLQMNSLKPEDTAVYYCAADGWAAWLYDYWGQGTQVTVSS | low polyreactivity
25 | QVQLVESGGGLVQAGGSLRLSCAASGRNFYPYAMVWYRQAPGKERELVAAISKSGGRTYYADSVKGRFTISRDNAKNTVDLQMNSLKPEDTAVYYCNAAPGYTYVTYDYWGQGTLVTVSS | high polyreactivity
26 | QVQLVESGGGLVQAGGSLRLSCAASGRNFYRYAMGRYREAPGKERELVAAIRYSGGRTYYADSVKGRFTISRDNAKNTFYLQMNSLKPEDTAVYYCASDGQWYYAPFRGGDYENDYWGQGTQVTLSS | low polyreactivity
27 | QVQLVESGGGLVQAGGSLRLSCAASGRNFYVYTMGWYRQAPGKERELVAAISWSGGSTHHADSVKGRFTISRDNAKNTVYLQMNSLKPEDTAVYYCNKGVVSRVAFEYWGQGTQVTVSS | low polyreactivity
28 | QVQLVESGGGLVQAGGSLRLSCAASGRNFYYNAMGWYRPAPGKERELVAAISSGGSTTYADSVKGRFTISRDNAKNTVYLQLNSLKPEDTAVYYCNADISAHYVIGVPTGYYWGQGTQVTVSS | low polyreactivity
29 | QVQLVESGGGLVQAGGSLRLSCAASGRNIVGYAMGWYIQAPGKERELVAAITKSGGRTYYADSVKGRFTISRDNAKNTVYLQMNSLKPEDTAVYYCAVLNSKWNEYDYWGQGTQVTVSS | high polyreactivity
30 | QVQLVESGGGLVQAGGSLRLSCAASGRNIYSNAMGWYRQAPGKERELVAAIRWRDGSTYYADSVKGRFTISRDNAKNTVFLQMNSLKPVDTAVYYCAAVYWGEEYEYWGQGTQVTVSS | low polyreactivity
31 | QVQLVESGGGLVQAGGSLRLSCAASGRNLQNYAMGWYRQPPGKERELVAAISFSGGRTNYADSVKGRFTISRDNAKNTVYLQMKSLNPEDTAVYYCAKVYRRSGSVSRYDYWGQGTQVTVSS | high polyreactivity
32 | QVQLVESGGGLVQAGGSLRLSCAASGRNLVQYTMGWYRQAPGKERELVAVISWRECRTYYADSVKGRFTISRDNAKNTVFLQMNSLKPVDTAVYYCATSGSFWQRYYWGQGTQVTVSS | low polyreactivity
33 | QVQLVESGGGLVQAGGSLRLSCAASGRNSLYYTMGWYRQAPGKEREFVAAISSTGGSTYYADSVKGRFTISRDNAKNTVYLLMNSLKPVDTAVYYCNKVYGGGTYDYWGQGTQVTVSS | low polyreactivity
34 | QVQLVESGGGLVQAGGSLRLSCAASGRPFSSYAMGWYRQAPGKERELVARINSDGGRTYYADSVKGRFTISRDNAKDTVYLQMNSLKPEDTAVYYCAKRVVRGKVDYWGQGTQVTVSS | low polyreactivity
35 | QVQLVESGGGLVQAGGSLRLSCAASGRSFGLYVMGWYRQAPGKERELVAAITGVGSTKYADSVKGRFTISRDNAKNTVYLQMNSLKPEDTEVYYCAKRYLYDRRHAEYWAANDYWGQGTQVTVSS | low polyreactivity
36 | QVQLVESGGGLVQAGGSLRLSCAASGRSFRYNTMGWYRQAPGKERELVAAITKGAATTYYADSVKGRFTISRDNAKNTVYLKMTSLKPEDTAVYYCNAVYSRIVTQKYWGQGTQVTVSS | high polyreactivity
37 | QVQLVESGGGLVQAGGSLRLSCAASGRSFRYYAMGWYRQAPGKERELVAAISVSGGTTYYADSVKGRFTISRDNAKNTVYLQMNSLKPEDTAVYYCNAYYLAEYDYWGQGTQVTVSS | high polyreactivity
38 | QVQLVESGGGLVQAGGSLRLSCAASGRSFYLYAMGWYRQAPGKERELVAGITSGGRTNYADSVKGRFTISRDNAKNTVYLQMNSLKPEDTAVYYCAAGSRRYKYDYWGQGTQVTVSS | high polyreactivity
39 | QVQLVESGGGLVQAGGSLRLSCAASGRTALIYAMGWYRQAPGKERELVAAITASGGNTDYADSVKGRFTISRDNAMNTVYLQMNSLKPEDTAVYYCNKSRYDGGSGYDYWGQGTQVTVSS | low polyreactivity
40 | QVQLVESGGGLVQAGGSLRLSCAASGRTCGRYAMGWYRQAPGKERELVADISWNGGRTYYADSVKGRFTISRDNAKNTVYLKMNSLKPEDSAVYYCAKRFSPRYYYWGQGTQVTVSS | high polyreactivity
41 | QVQLVESGGGLVQAGGSLRLSCAASGRTFAAYAMGWYRQAPGKERELVAAISRGGGRTYYADSVKGRFTISRDNAKNTVYLQMNSLKPEDTAVYYCNAVRPRDNGSWGQGTQVTVSS | high polyreactivity
42 | QVQLVESGGGLVQAGGSLRLSCAASGRTFAGYAMGWYRQAPGKERELVAAISGSGGRTYYADSVKGRFTISRDYAKNTVYLQMNSLKPEDTAVYYCAASQRVYIARSDYWGQGSQVTVSS | high polyreactivity
43 | QVQLVESGGGLVQAGGSLRLSCAASGRTFAGYAMGWYRQPPGKERELVAAITSSGGTTYYADSVKGRFTISRDNAKNTVYLQMNILKPEDTAVYSCAADLTWIYRWQTYNYDYWGQGTQVTVSS | high polyreactivity
